Assay results reported in the supplement of paper PMC9170038.

Each sequence was assayed on MS2 coat protein (assay: apparent KD of MS2 coat protein, switch OFF state (with FMN for OFF switches, without FMN for ON switches); designed switch direction (-1 OFF switch, 1 ON switch): -1; higher = weaker reporter binding). Conditions: FMN input: 0 or 200 uM; Eterna round: R93 (includes R88 designs).
Procedure, shortened: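 Designed RNA switches, transcribed on-chip from Illumina sequencing clusters, were titrated with SNAP-549-labelled MS2 coat protein from 0.7 or 1.5 nM to 3 µM in twofold steps. The solution was 100 mM Tris-HCl pH 7.5, 80 mM KCl, 4 mM MgCl2, with constant ligand or without it. Apparent KD is the median over each design's normalised cluster binding-curve fits.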

“GGAAAACAUGAGGAUCACCCAUGUAAGGAUAUGCUAAAAAAGGAAAAAAACCCACCAGGCAGAAGGUACUAAAG [Janelle Amethyst 18 Mod 3 - Jieux - Exclusion 1]” was tested. Which “apparent KD of MS2 coat protein” value did it give?
Its value is 53.2 nM.

With “AAAAAACAUGAGGAUCACCCAUGUCAGGAUAUCAUAAAAAAAAAAAAAAAAAAAAAAGUGAGAAGGGACAAAAA [exclusion1-cac1]” as the sequence, how does the “apparent KD of MS2 coat protein” value read?
Its value is 32.7 nM.

For “AAACCACAUGAGGAUCACCCAUGUGAGGAUAUGAACGAAAUAAAAUAAAAAAUAAAGUUCAGAAGGCACAAAAA [Mat - Exclusion 1 - Eli mod - D15]”, which “apparent KD of MS2 coat protein” value is on record?
The value was 22.9 nM.

For “AAGAAGUGAGGAUAUACAUGAAAGAAAGAAAAGAAAAGAAAACAUGAGGAUCACCCAUGUAGAAGGCACAAGAA [EteRNA is fun!]”, which “apparent KD of MS2 coat protein” value is on record?
Its value is 27.6 nM.

For “GAUUAGGUAGGAUAUACAUGAGGAUCACCCAUGUAGGAAAAAAGCUACGAAAAAGAAUGUAGAAGGACCUAAAG [Mat - Exclusion 3 - Mayanna mod - D105]”, which “apparent KD of MS2 coat protein” value is on record?
The value was 22.9 nM.

Which “apparent KD of MS2 coat protein” value does the source give for “AAAAAGGGAGGAUAUACAUGAGGAUCACCCAUGUAAAAAAAAAAAAAGGGAAAAAAAAGUAGAAGGCCCAAAAA [Apepi]” here?
The value was 52.6 nM.

With “AAAAAACAUGAGGAUCACCCAUGUCAGGAUAUCCGGUUCUUGAAAAUCAAGAGGCGUUGGAGAAGGGACAUUCC [Chica Displaced 14 - Jieux - Exclusion 1]” as the sequence, how does the “apparent KD of MS2 coat protein” value read?
Its value is 74.4 nM.

For “AGUUGGCGAGGAUAUACAUGAGGAUCACCCAUGUGAGAGAAAAAAAGGAAAAAAAAAAGUAGAAGGCGCUGACA [Mat - Exclusion 3 - Lego mod - D44]”, which “apparent KD of MS2 coat protein” value is on record?
Its value is 69.1 nM.

Which “apparent KD of MS2 coat protein” value does the source give for “AUAGUACAUGAGGAUCACCCAUGUCAGGAUAUCGGAUAUGACAUGAAAAAAAUGUUAAUGAGAAGGGACUAUAA [EX1 Malc#18 Mod 1 - Jieux - Exclusion 1]” here?
Its value is 63.6 nM.

Which “apparent KD of MS2 coat protein” value does the source give for “AUGAGAGCAGGAUAUGCAGGUGAGCCGGAAGAAAGAAGAAGACAUGAGGAUCACCCAUGUAGAAGGGCUAGCCC [Madiesxe]” here?
The value was 38.7 nM.

With “AAGAAGUCAGGAUAUGCGAAGGCGUCUGAUAGACGAGGCUAGCAGAAGGGACAUGAGGAUCACCCAUGUAAAGA [Mat - Exclusion 4 - D83]” as the sequence, how does the “apparent KD of MS2 coat protein” value read?
The value was 55 nM.

Which “apparent KD of MS2 coat protein” value does the source give for “AGGGAGUAAGGAUAUGAGAAAGAAAAAGAAGGAAAAAAAGAUCAGAAGGUACAUGAGGAUCACCCAUGUAAAAA [milkweed 9]” here?
Its value is 26 nM.

“GCUUGGGAAGGAUAUACAUGAGGAUCACCCAUGUGAGAGAAAAAAGUGAGAAAGAAAAGUAGAAGGUCUUGAGG [salish99-ex3-84]” was tested. Which “apparent KD of MS2 coat protein” value did it give?
The value was 69.4 nM.

For “AAAAAAGCAGGAUAUACGUACAUGUCAAAAGACGUGAAGGGACAUGAGGAUCACCCAUGUAGAAGGGUUAAGAA [JL Stem Breaker 17]”, which “apparent KD of MS2 coat protein” value is on record?
The value was 49.4 nM.

For “AGUCAUACAGGAUAUACAUGAGGAUCACCCAUGUUUAUCCUAAAAAAAUAAAAAACAUGUAGAAGGGUAUGACA [EX3 216: Super Stable 16]”, which “apparent KD of MS2 coat protein” value is on record?
Its value is 13.7 nM.

Which “apparent KD of MS2 coat protein” value does the source give for “AAAAAGGUAGGAUAUACGAAAAAAAAGGGUAAAAUAAAUAAACAUGAGGAUCACCCAUGUAGAAGGACCAAAAA [Mat - Exclusion 2 - Tesla mod - D38]” here?
The value was 161 nM.

“AAAAAGUGAGGAUAUACAUGAGGAUCACCCAUGUAAUAAAAAAAAAGGGUGGAAGAAAGUAGAAGGCACCAAAA [Ex 3 May 48]” was tested. Which “apparent KD of MS2 coat protein” value did it give?
The value was 142 nM.

How did the “apparent KD of MS2 coat protein” value turn out when “GAAAAGUUAGGAUAUACAGAUAAAAAAACGAAAAAAAAUCUGUAGAAGGAACAUGAGGAUCACCCAUGUAAAAA [Mat - Exclusion 4 - Mayanna - D104]” was run?
The value was 15.5 nM.

How did the “apparent KD of MS2 coat protein” value turn out when “AAUUAGUGAGGAUAUACGGGAGGGAGGGAGGGAGGGAGGGAGUAGAAGGCACAUGAGGAUCACCCAUGUAAUUA [The West [Loop] is Red]” was run?
The value was 49.9 nM.

For “AAAAAGUGAGGAUAUACAUGAGGAUCACCCAUGUGUAUAAAAAAUUACACGAAAGAAUGUAGAAGGCACUAAAA [JL Mayanne Mod 3]”, which “apparent KD of MS2 coat protein” value is on record?
The value was 42.8 nM.

With “AAAAUACAUGAGGAUCACCCAUGUGAGGAUAUCUUAAAGGGAAUAAAAUAACUCAAAAAGAGAAGGCGCAAAAA [Ex 1 May 30]” as the sequence, how does the “apparent KD of MS2 coat protein” value read?
Its value is 32 nM.

For “UUUACGUGAGGAUAUGCGAAUAGAACGUAAGUCAUACAGACGCAGAAGGCACAUGAGGAUCACCCAUGUGAACC [JR_Exc004_Sub312]”, which “apparent KD of MS2 coat protein” value is on record?
Its value is 49.8 nM.

Which “apparent KD of MS2 coat protein” value does the source give for “AAAAAGAGAGGAUAUGCAGGAGAAAAAAAAAAAAAAAAAAAACAUGAGGAUCACCCAUGUAGAAGGCUCAAAAA [Ecls2-II]” here?
Its value is 15.7 nM.

With “AGUUGGCGAGGAUAUACAUGAGGAUCACCCAUGUGAGAGUAAGAAGUGAGAAAGAGAAGUAGAAGGCGCUAACA [Ruby 54]” as the sequence, how does the “apparent KD of MS2 coat protein” value read?
Its value is 284 nM.

For “AACAUGUGAGGAUAUAUAAGAAAAGAAAAGAAAGAAAAGAAAUAGAAGGCACAUGAGGAUCACCCAUGUAAGAA [EteRNA is fun!]”, which “apparent KD of MS2 coat protein” value is on record?
The value was 26.2 nM.

Which “apparent KD of MS2 coat protein” value does the source give for “AAGAAGCGAGGAUAUACAUGAGGAUCACCCAUGUAAAAGAAAGAAAAGGGAAAGAAAAGUAGAAGGCGCAAGAA [Nebpehtire Ahmose I, Ahmosis I]” here?
The value was 177 nM.

“AGCUAGUCAGGAUAUACGAACAUGUCAAAAGACGUGAAAAAACAUGAGGAUCACCCAUGUAGAAGGGACUAGCA [Mat - Exclusion 2 - JL mod - D11]” was tested. Which “apparent KD of MS2 coat protein” value did it give?
Its value is 14.6 nM.

How did the “apparent KD of MS2 coat protein” value turn out when “AACAGGUUAGGAUAUGUGUAACAAAUAAAAAAAAUAUAAACACAGAAGGAACAUGAGGAUCACCCAUGUUAACA [May 28]” was run?
Its value is 17 nM.

For “AAAAAGUCAGGAUAUACAUGAGGAUCACCCAUGUGAAAGAACGAAAAACGAAAAGCAAGUAGAAGGGACAAAAA [Ruby 78]”, which “apparent KD of MS2 coat protein” value is on record?
Its value is 14 nM.

Which “apparent KD of MS2 coat protein” value does the source give for “AACUGACAUGAGGAUCACCCAUGUCAGGAUAUGAUAUGUAAAAAAUAAAAAAUACUUAUCAGAAGGGACAUGAA [Design 43: Sub-opt C]” here?
The value was 14.4 nM.

“GAUAAACAUGAGGAUCACCCAUGUAAGGAUAUGCGCUAACUAACUAACUAACUAACUAGCAGAAGGUACACUAC [The End]” was tested. Which “apparent KD of MS2 coat protein” value did it give?
The value was 26.5 nM.

“AGCUAGUCAGGAUAUACGAAAAUGUACGAAGCUGAGAAGGGACAUGAGGAUCACCCAUGUAGAAGGGACUAGCA [Diamond 35]” was tested. Which “apparent KD of MS2 coat protein” value did it give?
Its value is 52.5 nM.

Which “apparent KD of MS2 coat protein” value does the source give for “AAAAAACAUGAGGAUCACCCAUGUGAGGAUAUGCGAAAAUAAAAUAAAAUAAUAAAAAGCAGAAGGCACACCAA [58%, Sh'dynasty, 2]” here?
The value was 29 nM.

With “AAAAAACAUGAGGAUCACCCAUGUGAGGAUAUCGAAAAGAAAAGAAAAGAAAGAAGAACGAGAAGGCACAAGAA [Sneferu]” as the sequence, how does the “apparent KD of MS2 coat protein” value read?
The value was 48 nM.

For “AAGAAGUGAGGAUAUCGAAGACAGACGAAAAGUCUGUCAAACGAGAAGGCACAUGAGGAUCACCCAUGUAAGAA [What have we learned so far?]”, which “apparent KD of MS2 coat protein” value is on record?
The value was 43.7 nM.

Which “apparent KD of MS2 coat protein” value does the source give for “AAGGGACAUGAGGAUCACCCAUGUCAGGAUAUGAUGCGAAUAAAGAAAGAAGAAAGCAUCAGAAGGGACAAAAA [58%, Disencluded 3, 3]” here?
Its value is 57.6 nM.

How did the “apparent KD of MS2 coat protein” value turn out when “GAGAAUGAAGGAUAUACAUGAGGAUCACCCAUGUAAGAGAAAGAGGGAAAAGAGAAAAGUAGAAGGUCAAAGAG [Ruby 73]” was run?
The value was 26 nM.

“ACAAGAUCAGGAUAUACAUGAGGAUCACCCAUGUAAAUCAAAAAGGGACUUACUUAAUGUAGAAGGGAUCAUGU [EX3 279: Random 15]” was tested. Which “apparent KD of MS2 coat protein” value did it give?
The value was 106 nM.

With “AAAAAGUGAGGAUAUGUCAAAAGUCACAAAAGUGACAAAAGACAGAAGGCACAUGAGGAUCACCCAUGUGGAAA [Mod of Eli - Late G + early G segment 2]” as the sequence, how does the “apparent KD of MS2 coat protein” value read?
The value was 28.6 nM.

Which “apparent KD of MS2 coat protein” value does the source give for “AGUUGGCGAGGAUAUACAUGAGGAUCACCCAUGUGAGAGAAAAAAGUGAGAAAGAAAAGUAGAAGGCGCUGACA [salish99-ex3-05]” here?
Its value is 202 nM.

How did the “apparent KD of MS2 coat protein” value turn out when “AAAAUACAUGAGGAUCACCCAUGUCAGGAUAUUCCUGCAGCCUUGAAUAAGGGCUGGUGAAGAAGGGACGGUGA [Ancele]” was run?
The value was 84.6 nM.

For “AAUAGUGAAGGAUAUACAGGAGAAGAAAGAUAAAAGAAAGAACAUGAGGAUCACCCAUGUAGAAGGUCAGAAGU [JR_Exc002_Sub1229]”, which “apparent KD of MS2 coat protein” value is on record?
Its value is 19.9 nM.

With “AAAGGACGAGGAUAUACAUGAGGAUCACCCAUGUAAAAAACAUAAGAAAAGAAGUUAUGUAGAAGGCGUCCAAA [69%, Moding Meechl, 13]” as the sequence, how does the “apparent KD of MS2 coat protein” value read?
Its value is 17.3 nM.

How did the “apparent KD of MS2 coat protein” value turn out when “AGCUAGUCAGGAUAUACAAAAUGAUUGCGAAAGCAAUCAACACAUGAGGAUCACCCAUGUAGAAGGGACUAGCA [Mat - Exclusion 2 - JL-Eli mod - D43]” was run?
Its value is 21.1 nM.
